No end group written: not given here.
Experiments:
[1] = molecular target: T1, GSGKPGSGEGSTKG SEQ ID NO: 489 (also: biotin on N-terminus or on added C-terminal Lys, which not given here); test: ELISA: antibody captured on Protein G plate, biotinylated peptide, streptavidin-HRP, chemiluminescence; y axis 0 to 7000000 without unit
T1 construct: also called 18 mer lacking its 4 N-terminal residues
T1 peptide: GSGKPGSGEGSTKG
Description: (§1) The antibodies (i.e., antigen binding molecules) were epitope mapped via ELISA using the full length peptide, […] (SEQ ID NO:1), and variants truncated on either the N- or C-terminus and containing either a biotin moiety on the N-terminus, or a lysine residue with a biotin moiety on the C-terminus. The antibodies were captured in 96-well plate format using plates pre-coated with Protein G (Pierce). The plates were washed 6× in PBST buffer followed by incubation with target peptides. An additional 6× wash was performed with PBST and the antibodies were further incubated with streptavidin-HRP. Upon a final 6× wash in PBST, signal was detected and quantified via enhanced chemiluminescense kit (ECL, from GE Healthcare) and a Varioskan Flash plate reader (Thermo Fisher).

[2] = molecular target: T2, GKPGSGEGSTKG SEQ ID NO: 490 (also: biotin on N-terminus or on added C-terminal Lys, which not given here); test: as above
T2 construct: also called 18 mer lacking its 6 N-terminal residues
T2 peptide: GKPGSGEGSTKG
Description: as §1

[3] = molecular target: T3, GSTSGSGKPGSGEG SEQ ID NO: 486 (also: biotin on N-terminus or on added C-terminal Lys, which not given here); test: as above
T3 construct: also called 18 mer lacking its 4 C-terminal residues
T3 peptide: GSTSGSGKPGSGEG
Description: as §1

[4] = molecular target: T4, GSTSGSGKPGSGEGST SEQ ID NO: 485 (also: biotin on N-terminus or on added C-terminal Lys, which not given here); test: as above
T4 construct: also called 18 mer lacking its 2 C-terminal residues
T4 peptide: GSTSGSGKPGSGEGST
Description: as §1

[5] = molecular target: T5, full length 18 mer linker peptide GSTSGSGKPGSGEGSTKG (also: biotin on N-terminus or on added C-terminal Lys, which not given here); test: as above
T5 construct: Synthetic linker peptide; also called full-length linker peptide; Whitlow linker
T5 peptide: GSTSGSGKPGSGEGSTKG
Description: as §1

[6] = molecular target: T6, SEQ ID NO: 498 KPGSGEGSTKG (also: biotin on N-terminus or on added C-terminal Lys, which not given here); test: epitope mapping ELISA: antibody captured on Protein G plate, biotinylated peptide, streptavidin-HRP, chemiluminescence
T6 peptide: KPGSGEGSTKG
Description: as §1

[7] = molecular target: T7, SEQ ID NO: 489 GSGKPGSGEGSTKG (also: biotin on N-terminus or on added C-terminal Lys, which not given here); test: as above
T7 peptide: GSGKPGSGEGSTKG
Description: as §1

[8] = molecular target: T8, SEQ ID NO: 490 GKPGSGEGSTKG (also: biotin on N-terminus or on added C-terminal Lys, which not given here); test: as above
T8 peptide: GKPGSGEGSTKG
Description: as §1

[9] = molecular target: T9, SEQ ID NO: 486 GSTSGSGKPGSGEG (also: biotin on N-terminus or on added C-terminal Lys, which not given here); test: as above
T9 peptide: GSTSGSGKPGSGEG
Description: as §1

[10] = molecular target: T10, SEQ ID NO: 497 SGKPGSGEGSTKG (also: biotin on N-terminus or on added C-terminal Lys, which not given here); test: as above
T10 peptide: SGKPGSGEGSTKG
Description: as §1

[11] = molecular target: T11, SEQ ID NO: 485 GSTSGSGKPGSGEGST (also: biotin on N-terminus or on added C-terminal Lys, which not given here); test: as above
T11 peptide: GSTSGSGKPGSGEGST
Description: as §1

[12] = molecular target: T12, SEQ ID NO: 496 GSTSGSGKPGSGE (also: biotin on N-terminus or on added C-terminal Lys, which not given here); test: as above
T12 peptide: GSTSGSGKPGSGE
Description: as §1

FL_peptide_OVA = molecular target: T13, FL_peptide_OVA (also: conjugated to ovalbumin, site and chemistry not given here); test: ELISA as for the peptides of the figure; y axis 0 to 7000000 without unit
T13 construct: not shown: the ovalbumin carrier protein
T13 peptide: GSTSGSGKPGSGEGSTKG
Description: as §1

Measured: binding result

B1: Clone 16 anti-linker antibody (antibody, V domains shown)
VH: QSLEESGGRLVTPGTPLTLTCTVSGSDISSYHMGWVRQAPGKGLEYIGIIVSSGSAYYATWAKGRFTISRTSTTVDLKITSPTTEDSATYFCARNQYSGYGFSFWGPGTLVTVSS
VL: AVVLTQTPSPVSTAVGGTVTINCQSSHSVYYGDWLAWYQQKPGQPPKLLIYRASNLASGVPSRFKGSGSGTQFTLTISGVQCDDAATYYCLGGYDDDGETAFGGGTEVVVKD
notes: Rabbit monoclonal from a hybridoma; also called Clone 16-6; 16-6
binds: [1] | [2] | [3] | [4] | [5] | [6] | [7] | [8] | [9] | [10] | [11] | [12] | FL_peptide_OVA

B2: Clone 8 anti-linker antibody (antibody, V domains shown)
VH: QSVEESGGRLVTPGTPLTLTCTASGFTISNLAIIWVRQAPGKGLEYIGDIDGRGDIYCATWAKGRFTISKTSTTLDLRFTSPTTEDTATYFCAVDGDGSGWGDFNFWGPGTLVTVSS
VL: AYDMTQTPASVEVAVGGTVSIKCQASQSISTALAWYQQKPGQPPKLLIYRASTLASGVSSRFKGSGSGTQFTLTISGVECDDAATYYCQQGWSTVNVDNVFGGGTEVVVRD
notes: Rabbit monoclonal from a hybridoma; also called Clone 8-4; 8-4
binds: [1] | [3] | [4] | [5] | [7] | [8] | [9] | [10] | [11] | [12] | FL_peptide_OVA
